Results taken from patent US20180171001A1 (ROCKEFELLER UNIVERSITY, published 2018).

Experiments:
Test in all cases: cell-based or functional assay
6535_3 = 6535_3 (Human immunodeficiency virus 1)
Tro11 = Tro11 (Human immunodeficiency virus 1)
SC4226618 = SC4226618 (Human immunodeficiency virus 1)

B1: chimeric IgG: 8ANC195 HC paired with mature LC with CDRL2 reverted to germline (antibody, V domains shown)
VH: QIHLVQSGTEVKKPGSSVTVSCKAYGVNTFGLYAVNWVRQAPGQSLEYIGQIWRWKSSASHHFRGRVLISAVDLTGSSPPISSLEIKNLTSDDTAVYFCTTTSTYDKWSGLHHDGVMAFSSWGQGTLISVSA
VL: DIQMTQSPSTLSASIGDTVRISCRASQSITGNWVAWYQQRPGKAPRLLIYKASALLGGVPSRFSGSAAGTDFTLTIGNLQAEDFGTFYCQQYDTYPGTFGQGTKVEVK
IC50 (fold change over 8ANC195 IgG), pseudovirus neutralization [panel B] (6535_3): 31 fold
IC50 (fold change over 8ANC195 IgG), pseudovirus neutralization [panel B] (Tro11): 62 fold
IC50 (fold change over 8ANC195 IgG), pseudovirus neutralization [panel B] (SC4226618): 99 fold
